Results on 1 molecule are retold here after patent US11918610B2, “Methods for diagnosis and treatment of type 1 diabetes” (priority 2018, dated 2024).

This experiment concerns non-obese diabetic mice (NOD/ShiLtJ) colonized with E. coli VT-55. The format is in vivo. Particulars: NOD mice gavaged with E. coli VT-55; regimen of each agent as in Table 3; positive control (no therapy) 16, negative controls 24 and 26.

Procedure: For this study non-obese diabetic mice (NOD/ShiLtJ) 8 weeks old (Jackson Laboratory, Bar Harbor, Me., USA) were housed and bred under specific pathogen-free conditions. Mice were maintained in a temperature controlled (22±2° C.) animal facility with a 12 hour light/dark cycle and were allowed free access to food and acidified drinking water. To increase the efficacy of E. coli transfer, all animals were exposed to antibiotic treatment before the transfer of E. coli. Starting at three weeks of age, recipient mice were treated with ampicillin (1 g/L) in the drinking water for the next 4 weeks. The bacterial strains used: E. coli strain VT-55—a wild-type, amyloid-producing strain. E. coli VT-55 bacteria were administered with oropharyngeal gavage to 8 week old female mice at 10^8 CFU, 2 times a week. Acceleration of T1D development was accessed by measuring blood glucose in a manner consistent with diabetes monitoring, using a FreeStyle Lite meter and test strips (Abbott). Blood glucose was evaluated weekly via a tail vein. T1D development was defined as occurring after two consecutive blood glucose measurements of at least 250 mg/dL.
TTR was expressed in E. coli VT-243. The TTR protein was precipitated from the supernatant of a 48 hour culture of E. coli VT-243 after centrifugation (12,000×g, 20 minutes 4° C.) of the lysed cells in the gradient 40-90% ammonium sulfate fraction (1.8-3.6 M). The precipitate that contained TTR was dialyzed overnight against 10 mM sodium phosphate buffer, pH 7.5, 100 mM KCl, 1 mM EDTA. The same volume of 200 mM sodium acetate buffer (pH 4.4, 100 mM KCl, 1 mM EDTA) was added to achieve a final pH of 4.5, and the mixture was then incubated for 18 hours at 37° C. Following centrifugation (45 min, 30,000×g, 4° C.), the supernatant was gel filtrated (Superdex 75) to elute phosphate buffer.
To develop nanoparticles with siRNA, we used cholesterol, distearoyl-sn-glycerol-3-phosphocholine (DSPC) and PEG2000-DMG (all Sigma). Nanoparticles were prepared by dissolving the 306013 lipidoid, cholesterol, DSPC, and PEG2000-DMG with final molar ratio of 50:38.5:10:1.5 in a 90% ethanol enriched with 10% 10 nM sodium citrate. Particles were formed following vortexing of equal volumes of siRNA solution with the lipid solution and subsequent dilution in PBS. Mice were orally gavaged with nanoparticles loaded with siRNA at a dose of 5 mg/kg.
The EcVac vaccine consisted of conjugates containing the 0-antigens of serotypes 06 of E. coli VT-55. […] The suspension for iv administration was made in TBS, (pH 7.4; 25 mmol Tris, 137 mmol NaCl, 2.8 mmol KCl).
Balb/c mice were immunized (10 μg) intraperitoneally and boosted (1 μg) subcutaneously with the E. coli amyloid isolated as previously described. Splenocytes were removed under sterile conditions, washed and hybridized to murine plasmacytoma parent cell line SP2/OAg14 using 40% polyethylene glycol and a spleen cell to plasmacytoma cell ratio of 5:1. Cells were plated in 96-well microtiter (Sarstedt) plates at 100,000 cells/per well with DMEM supplemented with 10% fetal bovine serum. Following 48h, cells were supplemented with hypoxanthine (100 PM) containing medium. After three washes with PBS-1% BSA, the presence of specific antibody binding was detected by ELISA. Serotype specific wells were cloned. Pristine-primed BALB/c mice were IP injected with 1×10^7 hybridoma cells. Ascites fluid was collected 14 days later, centrifuged (5000 g, 20 min, Eppendorf) and stored at −80° C. before use.

B1: T7 Endonuclease I: T7 Endonuclease I (New England Biolabs) (protein, UniProt P00641 1-149, looked up)
Endonuclease I: MAGYGAKGIRKVGAFRSGLEDKVSKQLESKGIKFEYEEWKVPYVIPASNHTYTPDFLLPNGIFVETKGLWESDDRKKHLLIREQHPELDIRIVFSSSRTKLYKGSPTSYGEFCEKHGIKFADKLIPAEWIKEPKKEVPFDRLKRKGGKK
Consider B1, for which the “Median T1D incidence 50% (weeks)” value amounted to 22 weeks.
